± gives the standard deviation of the averaged measurements.
B1: library; a variant is named by its letters at N, in order (parent)
chain: GCUGUCACCGAGAAACUGUGAAGUAUAUCUUAAACCUGGGCACUUAAAAGAUAUAUGGAGUUAGUAGUGCAACCUGCUCGGUCUGAUGAGUCCNNNNNNGGACGAAACAGC

Legend:
[1] = variants of: B1; assay: normalized RNA/DNA level without ligand (relative to sTRSVctl = 100) (log10 (% of sTRSVctl)); HEK293T; ligand: cyclic di-GMP (c-di-GMP-II aptamer); higher = less ribozyme self-cleavage, higher mRNA level; details: reporter: mCherry (pCS4076), ligand present: no
How it was run: (§1)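 HEK293T cells were transfected with library plasmids carrying ribozyme switches linked to an mCherry reporter, or an eGFP reporter in some ligand experiments, at 4 µg per well of a 6-well plate, with any ligand added 1 h beforehand. After 72 h, total RNA was extracted with EDTA, reverse-transcribed, amplified, barcoded and sequenced. RNA level was defined as RNA reads over DNA reads, normalized to a spiked-in non-cleaving sequence or to the top-ranked sequences. That value was multiplied by 100 and converted to log10, the top set was 25 sequences, and only sequences with ≥100 DNA reads were retained.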

[2] = variants of: B1; assay: normalized RNA/DNA level with ligand (relative to sTRSVctl = 100) (log10 (% of sTRSVctl)); HEK293T; ligand: cyclic di-GMP (c-di-GMP-II aptamer); ligand concentration (+) RNA-Seq: 1 mM; higher = less ribozyme self-cleavage, higher mRNA level; details: reporter: mCherry (pCS4076), ligand present: yes
How it was run: as §1

Variant | normalized RNA/DNA level without ligand (log10) [1] | normalized RNA/DNA level with ligand (log10) [2]
CCCCCC | 1.82 ± 0.043 | 1.93 ± 0.12
UCUGUC | 1.75 ± 0.035 | 1.87 ± 0.1
ACUUGA | 1.49 ± 0.11 | 1.72 ± 0.13
AGUCUC | 1.764 ± 0.0076 | 1.88 ± 0.085
AGUCUA | 1.55 ± 0.016 | 1.77 ± 0.12
UGGCGG | 1.854 ± 0.013 | 1.93 ± 0.13
UGGGCU | 1.81 ± 0.042 | 1.89 ± 0.089
UCGUAA | 1.44 ± 0.1 | 1.64 ± 0.15
UUUGCG | 1.78 ± 0.066 | 1.88 ± 0.12
CCAAUC | 1.55 ± 0.1 | 1.71 ± 0.1
CGACUC | 1.72 ± 0.03 | 1.86 ± 0.14
UGUCAC | 1.75 ± 0.04 | 1.87 ± 0.15
UCUGGG | 1.74 ± 0.026 | 1.88 ± 0.059
CUCACG | 1.78 ± 0.037 | 1.86 ± 0.16
UGCCAC | 1.77 ± 0.056 | 1.88 ± 0.15
GGGUAA | 1.61 ± 0.091 | 1.7 ± 0.12
GCUAAC | 1.49 ± 0.023 | 1.7 ± 0.15
GCUAAG | 1.49 ± 0.032 | 1.71 ± 0.1
GCAGUU | 1.45 ± 0.082 | 1.65 ± 0.11
UUGUGG | 1.795 ± 0.0063 | 1.9 ± 0.1
CACGGU | 1.685 ± 0.015 | 1.84 ± 0.064
AUGUAA | 1.54 ± 0.078 | 1.68 ± 0.14
UCGCAU | 1.572 ± 0.0067 | 1.76 ± 0.092
CAUACG | 1.81 ± 0.051 | 1.91 ± 0.052

Variant | normalized RNA/DNA level without ligand (log10) [1] | normalized RNA/DNA level with ligand (log10) [2]
GAUAUC | 1.6972 ± 0.0005 | 1.86 ± 0.12
CAGUGG | 1.68 ± 0.022 | 1.86 ± 0.065
UCUCAU | 1.638 ± 0.0046 | 1.78 ± 0.061
CAAUGC | 1.76 ± 0.076 | 1.83 ± 0.14
CAAUGG | 1.664 ± 0.0083 | 1.8 ± 0.087
CAGAAG | 1.68 ± 0.039 | 1.86 ± 0.092
CACCUG | 1.76 ± 0.023 | 1.85 ± 0.06
GAUCCA | 1.71 ± 0.032 | 1.85 ± 0.1
UGCCUG | 1.78 ± 0.047 | 1.88 ± 0.14
UGCCUA | 1.728 ± 0.0086 | 1.86 ± 0.074
GCGCGU | 1.59 ± 0.1 | 1.75 ± 0.044
CGCACU | 1.48 ± 0.12 | 1.71 ± 0.058
ACAUGC | 1.59 ± 0.049 | 1.77 ± 0.053
GCCAGU | 1.604 ± 0.016 | 1.82 ± 0.098
GAGUAC | 1.8 ± 0.059 | 1.87 ± 0.11
AUUCGA | 1.58 ± 0.023 | 1.71 ± 0.066
CCGCGG | 1.73 ± 0.044 | 1.85 ± 0.056
UGAAUA | 1.677 ± 0.0075 | 1.82 ± 0.096
GAGCGA | 1.735 ± 0.0089 | 1.85 ± 0.085
GGUAUA | 1.5 ± 0.066 | 1.72 ± 0.025
ACCGCU | 1.7 ± 0.028 | 1.86 ± 0.12
UAUACG | 1.75 ± 0.029 | 1.85 ± 0.11
AUUGAC | 1.663 ± 0.0079 | 1.79 ± 0.15
GAAUUC | 1.8 ± 0.021 | 1.92 ± 0.09

Variant | normalized RNA/DNA level without ligand (log10) [1] | normalized RNA/DNA level with ligand (log10) [2]
UAUUCG | 1.756 ± 0.0047 | 1.87 ± 0.13
GCCAAC | 1.51 ± 0.086 | 1.66 ± 0.056
GCACUG | 1.54 ± 0.092 | 1.75 ± 0.074
GACUUC | 1.74 ± 0.038 | 1.91 ± 0.1
AAAUUU | 1.67 ± 0.067 | 1.82 ± 0.17
GGCCUU | 1.791 ± 0.013 | 1.9 ± 0.059
CUACGC | 1.74 ± 0.043 | 1.86 ± 0.084
CUAAGU | 1.75 ± 0.063 | 1.84 ± 0.099
GUCUGG | 1.68 ± 0.036 | 1.86 ± 0.049
GUCUGA | 1.54 ± 0.018 | 1.75 ± 0.11
CUAGCC | 1.77 ± 0.022 | 1.83 ± 0.075
UGUAUU | 1.73 ± 0.016 | 1.9 ± 0.091
UCCCCA | 1.79 ± 0.034 | 1.91 ± 0.2
ACUAGG | 1.52 ± 0.071 | 1.7 ± 0.066
UCGCUU | 1.66 ± 0.018 | 1.84 ± 0.11
ACUUCA | 1.648 ± 0.014 | 1.83 ± 0.082
UCCCGA | 1.77 ± 0.059 | 1.87 ± 0.1
CGCUUC | 1.62 ± 0.051 | 1.81 ± 0.081
CAAGCG | 1.74 ± 0.052 | 1.85 ± 0.11
CAAGCU | 1.67 ± 0.021 | 1.83 ± 0.071
UUUCUC | 1.8 ± 0.024 | 1.92 ± 0.085
UAUCGA | 1.609 ± 0.0048 | 1.79 ± 0.12
UAUCGG | 1.743 ± 0.0093 | 1.84 ± 0.11
CACAAG | 1.66 ± 0.017 | 1.83 ± 0.11

Variant | normalized RNA/DNA level without ligand (log10) [1] | normalized RNA/DNA level with ligand (log10) [2]
CACAAU | 1.47 ± 0.11 | 1.68 ± 0.097
UAGCUC | 1.75 ± 0.022 | 1.89 ± 0.1
GAACAU | 1.64 ± 0.033 | 1.78 ± 0.097
UAUCCC | 1.83 ± 0.0035 | 1.9 ± 0.055
GCUGUC | 1.43 ± 0.14 | 1.72 ± 0.024
GCUUGA | 1.54 ± 0.08 | 1.76 ± 0.12
AGGGAA | 1.41 ± 0.11 | 1.53 ± 0.061
UUGACU | 1.75 ± 0.025 | 1.84 ± 0.11
UUCCCC | 1.84 ± 0.053 | 1.94 ± 0.14
UAGUUC | 1.71 ± 0.031 | 1.89 ± 0.057
CCUCGA | 1.71 ± 0.058 | 1.84 ± 0.093
CCUCGG | 1.838 ± 0.011 | 1.94 ± 0.025
GGGAUU | 1.66 ± 0.024 | 1.77 ± 0.12
AAGCUG | 1.64 ± 0.019 | 1.79 ± 0.076
AAUCCU | 1.73 ± 0.073 | 1.86 ± 0.11
AAUCCG | 1.83 ± 0.037 | 1.93 ± 0.028
AGGUUU | 1.7 ± 0.04 | 1.85 ± 0.11
AUCGGU | 1.647 ± 0.0035 | 1.78 ± 0.066
GACGUC | 1.671 ± 0.014 | 1.87 ± 0.1
AUUCAC | 1.76 ± 0.021 | 1.88 ± 0.09
GGGCCC | 1.92 ± 0.07 | 1.99 ± 0.056
GACACA | 1.63 ± 0.018 | 1.77 ± 0.07
AACUGU | 1.7 ± 0.023 | 1.85 ± 0.1
AUCAAC | 1.61 ± 0.063 | 1.8 ± 0.09

Variant | normalized RNA/DNA level without ligand (log10) [1] | normalized RNA/DNA level with ligand (log10) [2]
GCCGGG | 1.86 ± 0.089 | 1.93 ± 0.13
UCUCCG | 1.839 ± 0.0029 | 1.94 ± 0.099
UCCAAU | 1.645 ± 0.015 | 1.82 ± 0.12
GGUUGU | 1.7 ± 0.061 | 1.86 ± 0.16
UAAUGU | 1.652 ± 0.0062 | 1.78 ± 0.087
CCUUAU | 1.6 ± 0.034 | 1.79 ± 0.087
UGGGAC | 1.697 ± 0.01 | 1.84 ± 0.078
CGCUCC | 1.77 ± 0.035 | 1.89 ± 0.084
UAAGUC | 1.663 ± 0.0049 | 1.8 ± 0.11
GGACCU | 1.74 ± 0.07 | 1.85 ± 0.05
UCAACA | 1.708 ± 0.0058 | 1.81 ± 0.096
UUGGCC | 1.81 ± 0.031 | 1.88 ± 0.097
UUGGCA | 1.76 ± 0.035 | 1.83 ± 0.037
AACCCA | 1.621 ± 0.0091 | 1.81 ± 0.13
GCAGCG | 1.83 ± 0.035 | 1.92 ± 0.072
UGCUAA | 1.695 ± 0.0079 | 1.87 ± 0.09
AUUCCU | 1.74 ± 0.044 | 1.86 ± 0.1
GUGCUG | 1.75 ± 0.024 | 1.86 ± 0.12
AGCAUC | 1.8 ± 0.021 | 1.88 ± 0.12
AGCAUA | 1.52 ± 0.083 | 1.73 ± 0.074
